# B1: E3 ubiquitin-protein ligase MARCHF6 (Homo sapiens), O60337 (parent)
# chain: MDTAEEDICRVCRSEGTPEKPLYHPCVCTGSIKFIHQECLVQWLKHSRKEYCELCKHRFAFTPIYSPDMPSRLPIQDIFAGLVTSIGTAIRYWFHYTLVAFAWLGVVPLTACRIYKCLFTGSVSSLLTLPLDMLSTENLLADCLQGCFVVTCTLCAFISLVWLREQIVHGGAPIWLEHAAPPFNAAGHHQNEAPAGGNGAENVAADQPANPPAENAVVGENPDAQDDQAEEEEEDNEEEDDAGVEDAADANNGAQDDMNWNALEWDRAAEELTWERMLGLDGSLVFLEHVFWVVSLNTLFILVFAFCPYHIGHFSLVGLGFEEHVQASHFEGLITTIVGYILLAITLIICHGLATLVKFHRSRRLLGVCYIVVKVSLLVVVEIGVFPLICGWWLDICSLEMFDATLKDRELSFQSAPGTTMFLHWLVGMVYVFYFASFILLLREVLRPGVLWFLRNLNDPDFNPVQEMIHLPIYRHLRRFILSVIVFGSIVLLMLWLPIRIIKSVLPNFLPYNVMLYSDAPVSELSLELLLLQVVLPALLEQGHTRQWLKGLVRAWTVTAGYLLDLHSYLLGDQEENENSANQQVNNNQHARNNNAIPVVGEGLHAAHQAILQQGGPVGFQPYRRPLNFPLRIFLLIVFMCITLLIASLICLTLPVFAGRWLMSFWTGTAKIHELYTAACGLYVCWLTIRAVTVMVAWMPQGRRVIFQKVKEWSLMIMKTLIVAVLLAGVVPLLLGLLFELVIVAPLRVPLDQTPLFYPWQDWALGVLHAKIIAAITLMGPQWWLKTVIEQVYANGIRNIDLHYIVRKLAAPVISVLLLSLCVPYVIASGVVPLLGVTAEMQNLVHRRIYPFLLMVVVLMAILSFQVRQFKRLYEHIKNDKYLVGQRLVNYERKSGKQGSSPPPPQSSQE
# Variants of: B1
# Details: with erg1_human SQLE
row,effect of a mutation on the interaction,Variant
1,increasing interaction,C9A

# Source: IntAct's records for PubMed 24449766
